Experimental data from paper PMC3335792, “M. tuberculosis Sliding β-Clamp Does Not Interact Directly with the NAD^+ -Dependent DNA Ligase” (PLoS ONE, 2012).

T1: Mtbβ-clamp labeled with OregonGreen488 maleimide (Mtbβ-clamp^OG) (M. tuberculosis, UniProt P9WNU1 1-402, OregonGreen488 maleimide label (residue not stated))
T1 construct: also called Mtbβ^OG-Clamp
T1 sequence: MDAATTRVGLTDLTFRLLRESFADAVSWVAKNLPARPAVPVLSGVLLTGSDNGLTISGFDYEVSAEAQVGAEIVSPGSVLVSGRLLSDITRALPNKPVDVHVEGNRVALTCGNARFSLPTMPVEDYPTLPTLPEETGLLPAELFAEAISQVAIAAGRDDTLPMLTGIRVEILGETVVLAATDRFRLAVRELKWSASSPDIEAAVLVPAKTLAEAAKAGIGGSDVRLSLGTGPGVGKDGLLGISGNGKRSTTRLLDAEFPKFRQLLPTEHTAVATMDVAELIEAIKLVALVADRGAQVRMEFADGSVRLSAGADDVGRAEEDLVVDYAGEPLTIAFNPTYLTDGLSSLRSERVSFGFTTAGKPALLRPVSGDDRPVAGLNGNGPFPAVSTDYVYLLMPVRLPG


What was measured:
[1] = target: the molecule itself; test: crystal structure; Mtbβ-Clamp, hanging drop, 9% isopropanol, 12% PEG4K, 0.1 M Na HEPES pH 7.0, 295 K; space group C222_(1); two chains in the asymmetric unit
[2] = target: T1, Mtbβ-clamp labeled with OregonGreen488 …; test: other fluorescence titration; OregonGreen488-labeled β-clamp (50 or 100 nM in the methods, 90 nM in the legend) titrated with the partner protein; 20 mM Tris-Cl pH 7.5, 8 mM MgCl2, 1 mM DTT, 0.2 mM EDTA, 50 mM NaCl, 0.5 mM ATP, 22°C; emission at 510 nm; apparent Kd; settings: both partners purified

Binder | binding result [1] | Kd [2] [nM]
M. tuberculosis sliding β-clamp (Mtbβ-clamp, Rv0002) (natural protein, also called beta clamp; Native Mtbβ-Clamp) MDAATTRVGLTDLTFRLLRESFADAVSWVAKNLPARPAVPVLSGVLLTGSDNGLTISGFDYEVSAEAQVGAEIVSPGSVLVSGRLLSDITRALPNKPVDVHVEGNRVALTCGNARFSLPTMPVEDYPTLPTLPEETGLLPAELFAEAISQVAIAAGRDDTLPMLTGIRVEILGETVVLAATDRFRLAVRELKWSASSPDIEAAVLVPAKTLAEAAKAGIGGSDVRLSLGTGPGVGKDGLLGISGNGKRSTTRLLDAEFPKFRQLLPTEHTAVATMDVAELIEAIKLVALVADRGAQVRMEFADGSVRLSAGADDVGRAEEDLVVDYAGEPLTIAFNPTYLTDGLSSLRSERVSFGFTTAGKPALLRPVSGDDRPVAGLNGNGPFPAVSTDYVYLLMPVRLPG | binds | 
γ-subunit of the DNA clamp loader complex of M. tuberculosis (Rv3721c) (natural protein, γ-subunit of the DNA clamp loader (DNA polymerase III subunit gamma/tau) of M. tuberculosis, Rv3721c; also called γ-clamp loader; Mtb-γ-subunit) MALYRKYRPASFAEVVGQEHVTAPLSVALDAGRINHAYLFSGPRGCGKTSSARILARSLNCAQGPTANPCGVCESCVSLAPNAPGSIDVVELDAASHGGVDDTRELRDRAFYAPVQSRYRVFIVDEAHMVTTAGFNALLKIVEEPPEHLIFIFATTEPEKVLPTIRSRTHHYPFRLLPPRTMRALLARICEQEGVVVDDAVYPLVIRAGGGSPRDTLSVLDQLLAGAADTHVTYTRALGLLGVTDVALIDDAVDALAACDAAALFGAIESVIDGGHDPRRFATDLLERFRDLIVLQSVPDAASRGVVDAPEDALDRMREQAARIGRATLTRYAEVVQAGLGEMRGATAPRLLLEVVCARLLLPSASDAESALLQRVERIETRLDMSIPAPQAVPRPSAAA |  | 23.8
